Assay results published in patent US20230213527A1 (QUANTUM SI, published 2023).
Ends that are not written are not given here.

Legend:
[1] = target: T1, … (SEQ ID NO: 798), state with N-terminal leucine (LAFAYPDDD) (not fully specified (C-terminus); also: C-terminal azidolysine conjugated to DNA-streptavidin linker); assay: single-molecule on-chip dynamic sequencing; recognition of N-terminal leucine
T1 construct: residue range inferred from the recognized N-terminal residue
T1 peptide: LAFAYPDDD
Description: (§1) To illustrate how the kinetic parameters acquired from sequencing are sensitive to changes in sequence composition, sequencing was performed with a set of three peptides […] (SEQ ID NO: 798), […] (SEQ ID NO: 799), and […] (SEQ ID NO: 800)—that differ only at a single position, located immediately downstream from the PS961 N-terminal target leucine.
(§2) The semiconductor chip was placed in the sequencing device and a chip check was performed to test electronic circuit function and to optimize laser coupling alignment. The chip was then removed from the device socket and the chip was washed twice with 50 μL of 70% isopropanol, followed by four washes with 30 μL of wash buffer (50 mM MOPS pH 8.0, 60 mM potassium acetate, 50 mM glucose, 20 mM magnesium acetate, and surfactant mix) through a flow cell attached to the chip. A second chip check was then performed. The laser was then blocked via an integrated software-controlled shutter, peptide complex was added to a final concentration of 1-10 nM and mixed thoroughly, and the chip was incubated for 15 min. The chip was then washed six times with wash buffer, followed by addition of an imaging solution (wash buffer with 5 mM Trolox and an oxygen scavenging system). The laser was unblocked and the occupancy percentage (target 10-30%, Poisson distributed) was recorded by acquiring a photobleaching signal from a fluorophore attached to the peptide complex during 5 min of laser illumination. For NAA recognition-only assays, after peptide loading, labeled recognizer was added to a final concentration of 50 nM PS610, 100 nM PS691, or 250 nM PS961 (as indicated according to the experiment), and data was recorded for 10 hours.

[2] = target: T2, … (SEQ ID NO: 799), state with N-terminal leucine (LIFAYPDDD) (not fully specified (C-terminus); also: C-terminal azidolysine conjugated to DNA-streptavidin linker); assay: as above
T2 construct: residue range inferred from the recognized N-terminal residue
T2 peptide: LIFAYPDDD
Description: as §1, §2

[3] = target: T3, synthetic peptide … (SEQ ID NO: 794), state with N-terminal leucine (LIFAG) (human, not fully specified (C-terminus); also: C-terminal azidolysine conjugated to DNA-streptavidin linker); assay: single-molecule on-chip dynamic sequencing with PS610, PS961, PS691, PhTET2 and PhTET3
T3 construct: residue range inferred from the recognized N-terminal residue
T3 peptide: LIFAG
Description: (§3) The transition from leucine to isoleucine recognition by PS961 is readily identified as a sharp change in average PD. This overall pattern is replicated across many instances of sequencing of the same peptide, with similar PD statistics across traces, as each peptide molecule follows the same reaction pathway over the course of the sequencing run (FIGS. 3B-3C).
as §2, with “A second chip check was then performed. The laser was then blocked via an integrated software-controlled shutter, peptide complex was added to a final concentration of 1-10 nM and mixed thoroughly, and the chip was incubated for 15 min. The chip was then washed six times with wash buffer, followed by addition of an imaging solution (wash buffer with 5 mM Trolox and an oxygen scavenging system).” left out, “hours. […] Data was recorded for 15 min. […] The laser was then unblocked, and data was recorded for 10 hours.” for “hours.”

[4] = target: T4, synthetic peptide … (SEQ ID NO: 794), state with N-terminal isoleucine (IFAG) (human, not fully specified (C-terminus); also: C-terminal azidolysine conjugated to DNA-streptavidin linker); assay: as above
T4 construct: residue range inferred from the recognized N-terminal residue
T4 peptide: IFAG
Description: as §3
as §2, with “A second chip check was then performed. The laser was then blocked via an integrated software-controlled shutter, peptide complex was added to a final concentration of 1-10 nM and mixed thoroughly, and the chip was incubated for 15 min. The chip was then washed six times with wash buffer, followed by addition of an imaging solution (wash buffer with 5 mM Trolox and an oxygen scavenging system).” left out, “hours. […] Data was recorded for 15 min. […] The laser was then unblocked, and data was recorded for 10 hours.” for “hours.”

[5] = target: peptide with N-terminal LAA (C-terminal azidolysine conjugated to DNA-streptavidin linker); assay: single-molecule on-chip NAA recognition-only assay; immobilized peptide, dye-labeled recognizer in solution
Description: as §2, with “hours. For dynamic sequencing assays, after peptide loading, a mixture of labeled recognizers was added to obtain final concentrations of 50 nM PS610, 100 nM PS691, and 250 nM PS961. Data was recorded for 15 min. The laser was then blocked briefly and aminopeptidases were added to the sequencing reaction via the flow cell and mixed thoroughly (final concentration 2-8 μM PhTET2 and/or 20-80 μM PhTET3, as indicated according to the experiment). The laser was then unblocked, and data was recorded for 10 hours. For all runs, 30 μL of mineral oil was added to fluid reservoirs at each port of the flow cell to prevent evaporation during the run.” for “hours.”

[6] = target: peptide with N-terminal IAA (C-terminal azidolysine conjugated to DNA-streptavidin linker); assay: as above
Description: as §2, with “hours. For dynamic sequencing assays, after peptide loading, a mixture of labeled recognizers was added to obtain final concentrations of 50 nM PS610, 100 nM PS691, and 250 nM PS961. Data was recorded for 15 min. The laser was then blocked briefly and aminopeptidases were added to the sequencing reaction via the flow cell and mixed thoroughly (final concentration 2-8 μM PhTET2 and/or 20-80 μM PhTET3, as indicated according to the experiment). The laser was then unblocked, and data was recorded for 10 hours. For all runs, 30 μL of mineral oil was added to fluid reservoirs at each port of the flow cell to prevent evaporation during the run.” for “hours.”

[7] = target: peptide with N-terminal VAA (C-terminal azidolysine conjugated to DNA-streptavidin linker); assay: as above
Description: as §2, with “hours. For dynamic sequencing assays, after peptide loading, a mixture of labeled recognizers was added to obtain final concentrations of 50 nM PS610, 100 nM PS691, and 250 nM PS961. Data was recorded for 15 min. The laser was then blocked briefly and aminopeptidases were added to the sequencing reaction via the flow cell and mixed thoroughly (final concentration 2-8 μM PhTET2 and/or 20-80 μM PhTET3, as indicated according to the experiment). The laser was then unblocked, and data was recorded for 10 hours. For all runs, 30 μL of mineral oil was added to fluid reservoirs at each port of the flow cell to prevent evaporation during the run.” for “hours.”

B1: PS961 (designed binder)
chain: MPTAASATESAIEDTPAPARPEVDGRTKPKRQPRYHVVLWDDDDHTYQYVVVMLRSLFGHPPSRGYRMAKEMDTQGRVIVLTTTREHAELKRDQIHAFGRDRLLARSKGSMKASIEAEE
notes: also called PS961 (L, I, V); PS961 (LIV)
With B1 the “median pulse duration (PD)” value [1] was 1.29 s, the “median pulse duration (PD)” value [2] was 2.22 s and the binding result [3] was “binds”. The binding result [4] was “binds”, the “median pulse duration (PD)” value [5] was 1.21 s and the “median pulse duration (PD)” value [6] was 0.28 s. The “median pulse duration (PD)” value [7] was 0.21 s.
